Columns and labels:
[1] = system: PEG-TMB (TMB conjugated at the C-terminal azido-methionine analog to methyl-PEG-triarylphosphine conjugate 2 by Staudinger ligation)
[2] = system: TMA (truncated human thrombomodulin EGF-like domains 4-6, Met-388-Leu, C-terminal GlyGlyMet linker, expressed as an N-terminal Dsba enzyme fusion with leader sequence)
[3] = system: TMB (truncated human thrombomodulin derivative, EGF-like domains 4-6, Met-388-Leu, C-terminal GlyGlyMet linker with azido-methionine analog)
[4] = target: recombinant human Thrombomodulin (soluble truncated form that lacks the putative transmembrane and the cytoplasmic domains, approximate weight 68 kD; American Diagnostica Inc.) (UniProt P07204)
Chain of recombinant human Thrombomodulin (soluble truncated form that lacks the putative transmembrane and the cytoplasmic domains, approximate weight 68 kD; American Diagnostica Inc.) (P07204 whole entry, looked up, the tested form may be a part): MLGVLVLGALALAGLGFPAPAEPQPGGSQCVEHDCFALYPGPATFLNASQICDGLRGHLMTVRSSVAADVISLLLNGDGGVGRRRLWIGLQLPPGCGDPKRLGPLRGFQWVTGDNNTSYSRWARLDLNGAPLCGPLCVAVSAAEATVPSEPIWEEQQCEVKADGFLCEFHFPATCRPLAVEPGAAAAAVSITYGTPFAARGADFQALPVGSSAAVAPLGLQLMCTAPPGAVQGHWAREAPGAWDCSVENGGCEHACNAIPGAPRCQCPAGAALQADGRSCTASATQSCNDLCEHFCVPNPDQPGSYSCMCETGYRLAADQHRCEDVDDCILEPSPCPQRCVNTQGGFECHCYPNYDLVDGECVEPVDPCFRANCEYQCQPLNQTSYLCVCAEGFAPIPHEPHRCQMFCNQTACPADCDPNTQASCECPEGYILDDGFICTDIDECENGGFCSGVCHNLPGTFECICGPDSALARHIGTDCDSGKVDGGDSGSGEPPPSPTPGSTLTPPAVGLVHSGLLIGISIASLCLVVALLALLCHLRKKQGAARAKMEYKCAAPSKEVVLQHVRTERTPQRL

human alpha thrombin (Haematologic Technologies Inc.)
KM (µM) for protein C activation by the TM-thrombin complex [1]: 1 µM | kcat (min^-1) for protein C activation by the TM-thrombin complex [1]: 0.2 min⁻¹ | kcat/KM (min^-1 · µM^-1) for protein C activation by the TM-thrombin complex (min^-1 · µM^-1) [1]: 0.2 | KM (µM) for protein C activation by the TM-thrombin complex [2]: 0.9 µM | kcat (min^-1) for protein C activation by the TM-thrombin complex [2]: 0.22 min⁻¹ | kcat/KM (min^-1 · µM^-1) for protein C activation by the TM-thrombin complex (min^-1 · µM^-1) [2]: 0.26 | KM (µM) for protein C activation by the TM-thrombin complex [3]: 1 µM | kcat (min^-1) for protein C activation by the TM-thrombin complex [3]: 0.16 min⁻¹ | kcat/KM (min^-1 · µM^-1) for protein C activation by the TM-thrombin complex (min^-1 · µM^-1) [3]: 0.16 | KM (µM) for protein C activation by the TM-thrombin complex [4]: 0.7 µM | kcat (min^-1) for protein C activation by the TM-thrombin complex [4]: 0.14 min⁻¹ | kcat/KM (min^-1 · µM^-1) for protein C activation by the TM-thrombin complex (min^-1 · µM^-1) [4]: 0.21
